# According to US8124835B2, “Acyl-coa-dependent diacylglycerol acyltransferas 1 (DGAT1) gene from Tropaeolum majus, protein encoded thereby and uses thereof” (National Research Council of Canada, priority 2006, dated 2012):
# System: DGAT activity
# Assay: TmDGAT1 expressed in Sf9 insect cells, DGAT assay of membrane fractions
# Assay type: biochemical, Tropaeolum majus
# Conditions: Sf9 total membrane fraction (100,000×g pellet), 48 hours; sn-1,2-diolein + [1-14C]oleoyl-CoA
# Experimental: FIG. 7. Expression of T. majus DGAT1 in baculovirus insect cells. TmDGAT1 activity was determined using membranes isolated from insect cells infected with wild type baculovirus (Control) and TmDGAT1 recombinant baculovirus in the presence of sn-1,2-diolein and [1-^14C]oleoyl-CoA.
# The coding region of TmDGAT1 (SEQ. ID. NO: 2) was sub-cloned into pFastBAC for expression of the protein in an insect cell expression system (Bac-to-Bac baculovirus expression system, Invitrogen). Escherichia coli DH10Bac cells were transformed with the construct to generate recombinant bacmid DNA, and then the bacmid DNA was isolated and used to transfect Sf9 insect cells. The virus stock harvested from the transfected cells was used to re-infect fresh Sf9 insect cells. Insect cells (2.5×10^6 per 25 cm^2 dish) were infected with virus and were collected at 48 h by centrifugation and washed twice with PBS (Hobbs et al., 1999). […]
# DGAT assays were conducted at pH 7.4, with shaking at 100 rev/min in a water bath at 30° C. for 60 min. […] The ^14C-labelled TAGs were isolated by TLC on silica gel G plates developed in hexane:diethyl ether:acetic acid (70:30:1 v/v/v/), the radiolabelled TAG bands visualized on a Bioscan AR-2000 radio-TLC scanner using Win-Scan 2D© software (Bioscan Inc., Washington D.C., USA) and the bands scraped and quantified as described by Taylor et al. (1991). […]
molecule,measurement,value
"TmDGAT1: Tropaeolum majus acyl-CoA-dependent diacylglycerol acyltransferase 1, 518 amino acids (SEQ ID NO: 3), encoded by ORF SEQ ID NO: 2 (protein, listed as Tropaeolum majus) MAVAESSQNTTTMSGHGDSDLNNFRRRKPSSSVIEPSSSGFTSTNGVPATGHVAENRDQDRVGAMENATGSVNLIGNGGGVVIGNEEKQVGETDIRFTYRPSFPAHRRVRESPLSSDAIFKQSHAGLFNLCIVVLIAVNSRLIIENLMKYGWLIDTGFWFSSRSLGDWSIFMCCLTLPIFPLAAFIVEKLVQRNHISELVAVLLHVIVSTAAVLYPVIVILTCDSVYMSGVVLMLFGCIMWLKLVSYAHTSSDIRTLAKSGYKGDAHPNSTIVSCSYDVSLKSLAYFMVAPTLCYQPSYPRSSCIRKGWVVRQFVKLIVFIGLMGFIIEQYINPIVRNSKHPLKGDFLYAIERVLKLSVPNLYVWLCMFYSFFHLWLNILAELLRFGDREFYKDWWNAKTVAEYWKMWNMPVHRWMVRHLYFPCLRNGIPKEGAIIIAFLVSGAFHELCIAVPCHVFKLWAFIGIMFQVPLVLITNYLQEKFSNSMVGNMIFWFIFCILGQPMCVLLYYHDLINLKEK",DGAT activity relative to membrane fraction from control cells infected with vector only,about 10 fold
